{
  "source": "the DeepSol protein solubility set",
  "data": [
    {"assay": "soluble on expression in E. coli; label from the status in PepcDB or PDB records", "values": [
      {"sequence": "IDRMDRFALRFRALQNQYEQHKSPMRGLCGMRAGLIPHQLFIAHEVGRRYAPRVLLADEVGLGKTIEAGMIIHQQVLSGRAERVLIVVPETLQHQWLVEMMRRFNLHFSIFDEERCVEAYADSENPFDTAQFVLCSLDFIRKSKRRFEQVVEADWDLLVVDEAHHLEWNQTKPSREYQVIEAIAEETPGVLLLTATPE", "soluble on expression in E. coli": "not soluble"},
      {"sequence": "MSERDAIRAFSHMLETIFVRMRAEGTGSQTDAMQRWLDLYNVGSLPIDKKSYKALRLMDRETTDQQKEDATCAICLDNLQNNVDIPEDHVIKEELKIDPTTFGTTVIVMPCKHRFHYFCLTLWLEAQQTCPTCRQKVKTDKEVEEEERQRNLEELHDSMYG", "soluble on expression in E. coli": "not soluble"},
      {"sequence": "MLLQTLEERLATLRQRCAPLAQHATLSARFDRHLFRTRSTLLQGYLEEAGANLVALRQAVKHEQLPQVAWLAEHLASQLEAISRETAAWSLRQWDAAAPGLGRWQRRRIQHQEFERRLLAMTQERKIRLAQATGLVEQQTLQKEVEIYEGRLARCRHALEKIENVLARLTR", "soluble on expression in E. coli": "not soluble"},
      {"sequence": "SNAKELIQNIIEESYTDSQFTLSVLSEKLDLSSGYLSIMFKKNFGIPFQDYLLQKRMEKAKLLLLTTELKNYEIAEQVGFEDVNYFITKFKKYYQITPKQYRE", "soluble on expression in E. coli": "soluble"},
      {"sequence": "MSIAVGMIETLGFPAVVEAADSMVKAARVTLVGYEKIGSGRVTVIVRGDVSEVQASVTAGIENIRRVNGGEVLSNHIIARPHENLEYVLPIRYTEAVEQFREIVNPSIIRRAAALEHHHHHH", "soluble on expression in E. coli": "soluble"},
      {"sequence": "MGRVIFMGKTGCGKTTLCQALNNLEIKYKKTQAIELYDNAIDTPGEYMENRGYYTALIVTAADADIIALVYDCTSEENYIAPGFASMFCKEVIGIITKINLAKDKSEIEVAEERLNLAGVSKIFKVDTVDDVGIKELFNYLNKFLEHHHHHH", "soluble on expression in E. coli": "soluble"},
      {"sequence": "MSDDKFDAIVVGAGVAGSVAALVMARAGLDVLVIERGDSAGCKNMTGGRLYAHTLEAIIPGFAVSAPVERKVTREKISFLTEESAVTLDFHRGQPDVPQHASYTVLRNRLDPWLMEQAEQAGAQFIPGVRVDALVREGNKVTGVQAGDDILEANVVILADGVNSMLGRSLGMVPASDPHHYAVGVKEVIGLTPEQINDRFNITGEEGAAWLFAGSPSDGLMAGGFLYTNKDSISLGLVCGLGDIAHAQKSVPQMLEDFKQHPAIRPLISGGKLLEYSAHMVPEGGLAMVPQLVNEGVMIVGDAAGFCLNLGFTVRGMDLAIASAQAAATTVIAAKERADFSANSLAQYKRELEQSCVMRDMQHFRKIPALMENPRLFSQYPRMVADIMNEMFTIDGKPNQPVRKMIMGHAKKIGLINLLKDGIKGATAL", "soluble on expression in E. coli": "not soluble"},
      {"sequence": "MSLGAYLSQPNTVKCSGDGVGAPRLPLPYGFSAMQGWRVSMEDAHNCIPELDSETAMFSVYDGHGGEEVALYCAKYLPDIIKDQKAYKEGKLQKALEDAFLAIDAKLTTEEVIKELAQIAGRPGMEGKEEPGSDSGTTAVVALIRGKQLIVANAGDSRCVVSEAGKALDMSYDHKPEDEVELARIKNAGGKVTMDGRVNGGLNLSRAIGDHFYKRNKNLPPEEQMISALPDIKVLTLTDDHEFMVIACDGIWNVMSSQEVVDFIQSKISQRDENGELRLLSSIVEELLDQCLAPDTSGDGTGCDNMTCIIICFKPRNTAELQPESGKRKLEEVLSTEGAEEEGHHHHHH", "soluble on expression in E. coli": "soluble"},
      {"sequence": "MEHYMNTLAETMQRYVEKHDLHNLEGIKQTAIEGVWFYRSSKGNNRQPFVYQSGIIVLGQGHKNIHIGQTPVQYGPDDYLVVGVPMPLECEAFATNNEPLLGISIDISPTLLHKLVKKLEAQKFSNICEDSKRCGLKSVRMNDAMLDACKRLMKALCNDLDVAILGESLLEEIVYRTLVSKEGYVLFELAHQEGSYARVAKALNRVHAEYHEQLNVQTLAEEANMSVSAFHQAFRSVTLESPLQYIKKVRLNKARDLIQLEGKRVNDAARLVGYSSPSQFSREYKRHFNETPRSTKA", "soluble on expression in E. coli": "not soluble"},
      {"sequence": "MGSDKIHHHHHHMKVSDIMTPDPITYHVPSSINEVIKVLIKYNVTGVPITDQSGHYAGFVSRRDVFANPRETQTAMVMRRSKAVYEDDEVRTAALEMLAQKKRHLTVVDRDGHVKGILTPQNFMKTIKENYGNVKVKEVMKETSVPIWYKTPLPAILTVMNVSGIFSFPVIDDNGTFVGLLVDRDIFDRIDLKFDSILSEMGIADDEDPWSWTGLRNVFKYVVERADIKLPKISADEIMVKNPTVVYANDKLSTAAELMIKYNYNQLPVLDDSHGIYGMLYDIEMLGVFQ", "soluble on expression in E. coli": "not soluble"},
      {"sequence": "MAHHHHHHMATDLDSFSTYIDHLILLLAARFHAPLEVSVEELLPSSMNLSAEAQCPWELVACSVQQALRTPQTAQERLLMRHLDVHHFSASVCRERARYMQWKLQECRRRRGDKQQLVQSPAVPSAARANTSSTVAASATAAGQPCDVACTSLHNDVCSLYKLVLQSLPSTLGGTESDDDEEDAQAPTTSVQSLASASEPSSFERVHEVFMRTPAEQERDELVARARDEFLSQVQALQSVYYEKYHRWMDVPASVLDPPPASSKQPASTDGAAAALESAAPQRGSESERAALLEALGAAAAPPPRHRKQANHASSSGAADWTEKPHTLASMLHQVQLRRPLRPSAVSDDVLESLYRARAETEEAPKNLCVASGLRSCPPAASTSATPSFAGGCADTITAEAVAVAPSSSQPSSSVAAVRKDTVPPASRRGRWQIVEYDDDDDGEG", "soluble on expression in E. coli": "not soluble"},
      {"sequence": "MPSVPRVDRLKPIYTAAKALNFGWRFSDFLKIPAYNGISRYTNQLHRITVRFCKQSESSVGVRNFIENQLVEIGRKNPSVVIYAQPVRNSNPSIRAEYGNGRTLQINAKNMTQDEVSKDVHLLFSRSGEPVVKLESRQSALVPSIQGQWTPITWLPTEMNTEQLPAKQFSKHKSTATSATEYILQNPPK", "soluble on expression in E. coli": "not soluble"},
      {"sequence": "MIRIGHGFDVHRFGGEGPIIIGGVKIPYEQGLIAHSDGDVALHALSDALLGAIAAGDIGRHFPDTDDKWKGADSRELLKDVYRRVKAQGYVLGNADVTIIAQAPKMAPYIQAMCAAIAEDLETDLGNINVKATTTEKLGFTGRKEGIACEAVVLLRKA", "soluble on expression in E. coli": "not soluble"},
      {"sequence": "RAKGTLRIWAEPFTKLRVPKIFNLRMDPYEVADVTSNTYYDWMLDRAYMLVPAQTYVGRFLETFKEFPPRQKAASFSLDQVMEKLQENPNK", "soluble on expression in E. coli": "not soluble"},
      {"sequence": "MNVAKNRKEKIAGLFLMCPGSGLDMNFVNTIQPGALQYLMKKGSINYPASKNGYPALLTVECLEEFLNTDISKTSPKVIDIQCPVLTVHGIEDNIVPVENSKKLMQRMASTYKDFHRIPGVDHNFDLDEEVLKRLGQLMDVIRENESKKLKAKI", "soluble on expression in E. coli": "not soluble"},
      {"sequence": "MGSDKIHHHHHHMDAIARELRTSRSTVSRLLSAARETGLVQIQIRNPLDTGPELENMIRTQYRVDVHVVPVLDTLNEAETLDRVAMQAARTIGPLVDSNAIIGVAWGSTLSAVSRHLTRKITHDSVIVQLNGAGNMQTTGITYASDIMRRFGSAYGARVEQFPVPAFFDHAATKTAMWNERSVQRILELQSRMSIAIFGVGSVDADYPSHVYAGGYLDEDDLNILANSDVVGDVATVFFRGDGSSDGITLNERSTGPALAQLRQVRRRICVVSGASKINGLRGALAAGLATDLILDEATARRLVSFDGLS", "soluble on expression in E. coli": "not soluble"},
      {"sequence": "MNTCPLCHSTDLVAYHHDKRRPYQQCQRCALVSVPAEFYLSRDEEKAEYDKHENHPQDLGYQQFLDRTLAPLLARFESTALGLDFGCGEGKALSLMAQARGYRVENYDLYYANHPELLTRQYDFITLTEVIEHVSDADALLTQLKGMLKPKGILAVMTKRVLNPTAFSTWHYKNDPTHINFYAEATFQWLAEHYGWRLEVIDKDVVFLYQANLEHHHHHH", "soluble on expression in E. coli": "soluble"},
      {"sequence": "MIVPPPEELTGARVLAYALIDESTPYSGRITLYVDGELIGPVPRLVIALNNYGPDDYLLLYCNENWDVIGAGGHASLVAAKESANIAYPGVASRWQDVA", "soluble on expression in E. coli": "not soluble"},
      {"sequence": "MSERVKVAILGSGNIGTDLMYKLLKNPGHMELVAVVGIDPKSEGLARARALGLEASHEGIAYILERPEIKIVFDATSAKAHVRHAKLLREAGKIAIDLTPAARGPYVVPPVNLKEHLDKDNVNLITCGGQATIPLVYAVHRVAPVLYAEMVSTVASRSAGPGTRQNIDEFTFTTARGLEAIGGAKKGKAIIILNPAEPPILMTNTVRCIPEDEGFDREAVVASVRAMEREVQAYVPGYRLKADPVFERLPTPWGERTVVSMLLEVEGAGDYLPKYAGNLDIMTASARRVGEVFAQHLLGKPVEEVVA", "soluble on expression in E. coli": "soluble"}
    ]}
  ]
}
